The chains are these.
B1: Endoglin (Homo sapiens), P17813 (parent)
chain: MDRGTLPLAVALLLASCSLSPTSLAETVHCDLQPVGPERGEVTYTTSQVSKGCVAQAPNAILEVHVLFLEFPTGPSQLELTLQASKQNGTWPREVLLVLSVNSSVFLHLQALGIPLHLAYNSSLVTFQEPPGVNTTELPSFPKTQILEWAAERGPITSAAELNDPQSILLRLGQAQGSLSFCMLEASQDMGRTLEWRPRTPALVRGCHLEGVAGHKEAHILRVLPGHSAGPRTVTVKVELSCAPGDLDAVLILQGPPYVSWLIDANHNMQIWTTGEYSFKIFPEKNIRGFKLPDTPQGLLGEARMLNASIVASFVELPLASIVSLHASSCGGRLQTSPAPIQTTPPKDTCSPELLMSLIQTKCADDAMTLVLKKELVAHLKCTITGLTFWDPSCEAEDRGDKFVLRSAYSSCGMQVSASMISNEAVVNILSSSSPQRKKVHCLNMDSLSFQLGLYLSPHFLQASNTIEPGQQSFVQVRVSPSVSEFLLQLDSCHLDLGPEGGTVELIQGRAAKGNCVSLLSPSPEGDPRFSFLLHFYTVPIPKTGTLSCTVALRPKTGSQDQEVHRTVFMRLNIISPDLSGCTSKGLVLPAVLGITFGAFLIGALLTAALWYIYSHTRSPSKREPVVAVAAPASSESSSTNHSIGSTQSTPCSTSSMA

Here are results for one variant from IntAct's records for PubMed 22940691.

Variants of B1 are the subject of this experiment. The conditions noted are these: with arrb2_human ARRB2, P32121.
Sequence of arrb2_human ARRB2, P32121 (P32121 whole entry): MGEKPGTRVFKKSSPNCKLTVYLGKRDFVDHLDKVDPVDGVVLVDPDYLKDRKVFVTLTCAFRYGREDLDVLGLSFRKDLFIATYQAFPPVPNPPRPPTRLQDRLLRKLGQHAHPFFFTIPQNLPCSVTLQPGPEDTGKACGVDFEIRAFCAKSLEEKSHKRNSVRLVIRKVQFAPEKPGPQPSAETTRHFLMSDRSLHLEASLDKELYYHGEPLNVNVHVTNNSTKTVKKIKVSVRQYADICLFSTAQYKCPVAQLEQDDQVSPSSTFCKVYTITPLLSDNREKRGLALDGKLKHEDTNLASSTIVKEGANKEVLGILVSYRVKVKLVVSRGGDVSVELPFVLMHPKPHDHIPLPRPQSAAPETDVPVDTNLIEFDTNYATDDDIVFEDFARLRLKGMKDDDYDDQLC
As to T650A, the “effect of a mutation on the interaction” value is given as “disrupting interaction”.
